PMC7718890

Assays:
CarD R47E;MTB RNAP (WT) = CarD R47E;MTB RNAP (WT) (Mycobacterium …, UniProt P9WJG3;P9WGZ1;P9WGY9;P9WGY7;P9WGY5 1-162;1-347;1-1178;1-1316;1-110, R47E|); assay: competition (fluorescence polarization); details: protein: recombinant;recombinant; tags: ;; copies: 1;2;1;1;1; blunt
CarD K90A;MTB RNAP (WT) = CarD K90A;MTB RNAP (WT) (Mycobacterium …, UniProt P9WJG3;P9WGZ1;P9WGY9;P9WGY7;P9WGY5 1-162;1-347;1-1178;1-1316;1-110, K90A|); assay: competition (fluorescence polarization); details: protein: recombinant;recombinant; tags: ;; copies: 1;2;1;1;1; blunt

B1: rrnAP3 native 61 bp (dsDNA)
DNA 1: GATGACCGAACCTGGTCTTGACTCCATTGCCGGATTTGTATTAGACTGGCAGGGTTGCCCC
DNA 2: GGGGCAACCCTGCCAGTCTAATACAAATCCGGCAATGGAGTCAAGACCAGGTTCGGTCATC
CarD R47E;MTB RNAP (WT)
  Ki: 129 ± 14 nM
CarD K90A;MTB RNAP (WT)
  Ki: 85 ± 6 nM
